Eleven molecules from patent US5801039 can be followed below.

The target of assay [1] is casein (prepared according to Hammarsten; Merck, Darmstadt, #2242).
In assay [2] the target is T1, succinyl-L-alanyl-L-alanyl-L-prolyl-L-phenylalanyl-p-nitroanilide.
T1 sequence (peptide, N-terminal succinyl; C-terminal p-nitroanilide): AAPF

B1: Bacillus lentus DSM 5483 alkaline protease (BLAP), wild type enzyme (enzyme)
chain: AQSVPWGISRVQAPAAHNRGLTGSGVKVAVLDTGISTHPDLNIRGGASFVPGEPSTQDGNGHGTHVAGTIAALNNSIGVLGVAPSAELYAVKVLGADGRGAISSIAQGLEWAGNNGMHVANLSLGSPSPSATLEQAVNSATSRGVLVVAASGNSGASSISYPARYANAMAVGATDQNNNRASFSQYGAGLDIVAPGVNVQSTYPGSTYASLNGTSMATPHVAGAAALVKQKNPSWSNVQIRNHLKNTATSLGSTNLYGSGLVNAEAATR
As for B1, the Specific Activity (HPE · mg^-1) in assay [1] stood at 4000 HPE · mg^-1. In assay [2], the kcat · Km^-1 was determined as 297000 M⁻¹ s⁻¹.

B2: BLAP mutant F55 (S3T + V4I + S154E + A188P + V193M + V199I + L211D) (enzyme)
chain: AQTIPWGISRVQAPAAHNRGLTGSGVKVAVLDTGISTHPDLNIRGGASFVPGEPSTQDGNGHGTHVAGTIAALNNSIGVLGVAPSAELYAVKVLGADGRGAISSIAQGLEWAGNNGMHVANLSLGSPSPSATLEQAVNSATSRGVLVVAASGNEGASSISYPARYANAMAVGATDQNNNRASFSQYGPGLDIMAPGVNIQSTYPGSTYASDNGTSMATPHVAGAAALVKQKNPSWSNVQIRNHLKNTATSLGSTNLYGSGLVNAEAATR
B2 gave a Specific Activity (HPE · mg^-1) in assay [1] of 3200 HPE · mg^-1. Moreover, the kcat · Km^-1 in assay [2] amounted to 2600 M⁻¹ s⁻¹.

B3: BLAP variant M131 (S3T + V4I + A188P + V193M + V199I) (enzyme)
chain: AQTIPWGISRVQAPAAHNRGLTGSGVKVAVLDTGISTHPDLNIRGGASFVPGEPSTQDGNGHGTHVAGTIAALNNSIGVLGVAPSAELYAVKVLGADGRGAISSIAQGLEWAGNNGMHVANLSLGSPSPSATLEQAVNSATSRGVLVVAASGNSGASSISYPARYANAMAVGATDQNNNRASFSQYGPGLDIMAPGVNIQSTYPGSTYASLNGTSMATPHVAGAAALVKQKNPSWSNVQIRNHLKNTATSLGSTNLYGSGLVNAEAATR
In assay [1], B3 showed a Specific Activity (HPE · mg^-1) of 3670 HPE · mg^-1. Further, the kcat · Km^-1 in assay [2] is 156000 M⁻¹ s⁻¹.

B4: BLAP mutant F47 (S3T + V4I + S154D + A188P + V193M + V199I) (enzyme)
chain: AQTIPWGISRVQAPAAHNRGLTGSGVKVAVLDTGISTHPDLNIRGGASFVPGEPSTQDGNGHGTHVAGTIAALNNSIGVLGVAPSAELYAVKVLGADGRGAISSIAQGLEWAGNNGMHVANLSLGSPSPSATLEQAVNSATSRGVLVVAASGNDGASSISYPARYANAMAVGATDQNNNRASFSQYGPGLDIMAPGVNIQSTYPGSTYASLNGTSMATPHVAGAAALVKQKNPSWSNVQIRNHLKNTATSLGSTNLYGSGLVNAEAATR
For B4, in assay [1], the Specific Activity (HPE · mg^-1) was 3610 HPE · mg^-1. Also, the kcat · Km^-1 in assay [2] turned out to be 124000 M⁻¹ s⁻¹.

B5: BLAP mutant F11 (S3T + R99S + A188P + V193M + V199I) (enzyme)
chain: AQTVPWGISRVQAPAAHNRGLTGSGVKVAVLDTGISTHPDLNIRGGASFVPGEPSTQDGNGHGTHVAGTIAALNNSIGVLGVAPSAELYAVKVLGADGSGAISSIAQGLEWAGNNGMHVANLSLGSPSPSATLEQAVNSATSRGVLVVAASGNSGASSISYPARYANAMAVGATDQNNNRASFSQYGPGLDIMAPGVNIQSTYPGSTYASLNGTSMATPHVAGAAALVKQKNPSWSNVQIRNHLKNTATSLGSTNLYGSGLVNAEAATR
For the molecule B5, the Specific Activity (HPE · mg^-1) in assay [1] amounted to 3760 HPE · mg^-1. In assay [2], the kcat · Km^-1 was 92000 M⁻¹ s⁻¹.

B6: BLAP mutant F49 (S3T + V4I + A188P + V193M + V199I + L211D) (enzyme)
chain: AQTIPWGISRVQAPAAHNRGLTGSGVKVAVLDTGISTHPDLNIRGGASFVPGEPSTQDGNGHGTHVAGTIAALNNSIGVLGVAPSAELYAVKVLGADGRGAISSIAQGLEWAGNNGMHVANLSLGSPSPSATLEQAVNSATSRGVLVVAASGNSGASSISYPARYANAMAVGATDQNNNRASFSQYGPGLDIMAPGVNIQSTYPGSTYASDNGTSMATPHVAGAAALVKQKNPSWSNVQIRNHLKNTATSLGSTNLYGSGLVNAEAATR
Turning to B6, the Specific Activity (HPE · mg^-1) in assay [1] turned out to be 4610 HPE · mg^-1. Also, the kcat · Km^-1 in assay [2] stood at 11000 M⁻¹ s⁻¹.

B7: BLAP mutant F44 (S3T + V4I + R99A + A188P + V193M + V199I) (enzyme)
chain: AQTIPWGISRVQAPAAHNRGLTGSGVKVAVLDTGISTHPDLNIRGGASFVPGEPSTQDGNGHGTHVAGTIAALNNSIGVLGVAPSAELYAVKVLGADGAGAISSIAQGLEWAGNNGMHVANLSLGSPSPSATLEQAVNSATSRGVLVVAASGNSGASSISYPARYANAMAVGATDQNNNRASFSQYGPGLDIMAPGVNIQSTYPGSTYASLNGTSMATPHVAGAAALVKQKNPSWSNVQIRNHLKNTATSLGSTNLYGSGLVNAEAATR
B7: the Specific Activity (HPE · mg^-1) in assay [1] came out at 3750 HPE · mg^-1. The kcat · Km^-1 in assay [2] came out at 103000 M⁻¹ s⁻¹.

B8: BLAP mutant F54 (S3T + V4I + R99G + A188P + V193M + V199I + L211D) (enzyme)
chain: AQTIPWGISRVQAPAAHNRGLTGSGVKVAVLDTGISTHPDLNIRGGASFVPGEPSTQDGNGHGTHVAGTIAALNNSIGVLGVAPSAELYAVKVLGADGGGAISSIAQGLEWAGNNGMHVANLSLGSPSPSATLEQAVNSATSRGVLVVAASGNSGASSISYPARYANAMAVGATDQNNNRASFSQYGPGLDIMAPGVNIQSTYPGSTYASDNGTSMATPHVAGAAALVKQKNPSWSNVQIRNHLKNTATSLGSTNLYGSGLVNAEAATR
Molecule B8 displayed a Specific Activity (HPE · mg^-1) in assay [1] of 2510 HPE · mg^-1. Also, the kcat · Km^-1 in assay [2] was 1300 M⁻¹ s⁻¹.

B9: BLAP mutant F45 (S3T + V4I + R99S + A188P + V193M + V199I) (enzyme)
chain: AQTIPWGISRVQAPAAHNRGLTGSGVKVAVLDTGISTHPDLNIRGGASFVPGEPSTQDGNGHGTHVAGTIAALNNSIGVLGVAPSAELYAVKVLGADGSGAISSIAQGLEWAGNNGMHVANLSLGSPSPSATLEQAVNSATSRGVLVVAASGNSGASSISYPARYANAMAVGATDQNNNRASFSQYGPGLDIMAPGVNIQSTYPGSTYASLNGTSMATPHVAGAAALVKQKNPSWSNVQIRNHLKNTATSLGSTNLYGSGLVNAEAATR
The molecule B9 returned a Specific Activity (HPE · mg^-1) in assay [1] of 3710 HPE · mg^-1. Also, the kcat · Km^-1 in assay [2] is 68000 M⁻¹ s⁻¹.

B10: BLAP mutant F46 (S3T + V4I + S154E + A188P + V193M + V199I) (enzyme)
chain: AQTIPWGISRVQAPAAHNRGLTGSGVKVAVLDTGISTHPDLNIRGGASFVPGEPSTQDGNGHGTHVAGTIAALNNSIGVLGVAPSAELYAVKVLGADGRGAISSIAQGLEWAGNNGMHVANLSLGSPSPSATLEQAVNSATSRGVLVVAASGNEGASSISYPARYANAMAVGATDQNNNRASFSQYGPGLDIMAPGVNIQSTYPGSTYASLNGTSMATPHVAGAAALVKQKNPSWSNVQIRNHLKNTATSLGSTNLYGSGLVNAEAATR
Molecule B10 showed a Specific Activity (HPE · mg^-1) in assay [1] of 3180 HPE · mg^-1. In addition, in assay [2], the kcat · Km^-1 was 179000 M⁻¹ s⁻¹.

B11: BLAP mutant F43 (S3T + V4I + R99G + A188P + V193M + V199I) (enzyme)
chain: AQTIPWGISRVQAPAAHNRGLTGSGVKVAVLDTGISTHPDLNIRGGASFVPGEPSTQDGNGHGTHVAGTIAALNNSIGVLGVAPSAELYAVKVLGADGGGAISSIAQGLEWAGNNGMHVANLSLGSPSPSATLEQAVNSATSRGVLVVAASGNSGASSISYPARYANAMAVGATDQNNNRASFSQYGPGLDIMAPGVNIQSTYPGSTYASLNGTSMATPHVAGAAALVKQKNPSWSNVQIRNHLKNTATSLGSTNLYGSGLVNAEAATR
B11: the Specific Activity (HPE · mg^-1) in assay [1] came to 3780 HPE · mg^-1. In addition, the kcat · Km^-1 in assay [2] amounted to 99000 M⁻¹ s⁻¹.
